Experimental data: patent publication US20240083983A1 (Regeneron, published 2024)

Biological target: Influenza B hemagglutinin (HA) from B/Florida/4/2006 (Influenza B virus, strain …, UniProt P03463 16-583)

B1: mAb35490 (antibody, human IgG1, kappa, V domains shown)
VH: EVQLVESGGDLVQPGGSLRLSCAASGFTVSSNYMSWVRQVPGKGLDWVSVTYSGGNTYYADSVKGRFTISRHNSKNTLYLQMNSLRIEDTAVYYCATVPSFHGMDVWGQGTTVTVSS
VL: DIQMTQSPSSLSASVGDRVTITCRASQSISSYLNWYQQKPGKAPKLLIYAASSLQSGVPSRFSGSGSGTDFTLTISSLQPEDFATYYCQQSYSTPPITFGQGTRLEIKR
For B1, the EC50 was 0.761 nM.
